Data reported in patent US20230303681A1.

Experiments:
mouse TMEM106B (mouse) [1] = target: mouse TMEM106B (mouse) (UniProt Q80X71); test: FACS Neuro2a
mouse TMEM106B (mouse) [2] = target: mouse TMEM106B (mouse) (UniProt Q80X71); test: FACS, HEK293 transfectants

MFI (mouse TMEM106B (mouse) [1]): 325 | fold-change over parental HEK293 (mouse TMEM106B (mouse) [2]): 1.97 fold
B1: anti-TMEM106B antibody TM-4 (antibody, V domains shown)
VH: EVQVQQSGPVLVKPGASVKMSCKASGYTFTDYYMNWVKQSHGKNLEWIGVINPYNGGTSYHQKFKGKATLTVDKSSSTAYMELNSLTSEDSAVYYCARAATVVAGFDYWGQGTTLTVSS
VL: QAVVTQESALTTSPGETVTLTCRSSTGAVTTSNYANWVQEKPDHLFTGLIGGTNNRAPGVPARFSGSLIGDKAALTITGAQTEDEAIYFCVLWYSNHLVFGGGTKLTVL
